Source: doi:10.1101/2020.03.05.978833

System: FasR wild-type (His6, EMSA) (Mycobacterium tuberculosis H37Rv)
Test: EMSA

PfasMT promoter fragment (398 bp)
Kd: 83 nM
